Results taken from patent US20140274766A1, “METHODS OF USING F-SPONDIN AS A BIOMARKER FOR CARTILAGE DEGENERATIVE CONDITIONS AND BONE DISEASES” (priority 2009, published 2014).

Tests used:
[1] = test system: chondrocytes in monolayer culture; test: F-spondin effects on genes/gene products, preliminary experiments with chondrocytes in monolayer culture; assay type: cell-based, human; set-up: key to TNFα regulation / IL-1β regulation / AGC1 regulation / PGE2 regulation / MMP-13 regulation / TGF-β regulation / BMP-2 regulation / MMP-1 regulation / IL-8 regulation / IL-6 regulation / COL2A1 regulation: F-spondin-mediated upregulation*; downregulation**
Protocol: F-spondin induced both catabolic and anabolic gene/gene products in chondrocytes including BMP-2, type II collagen, TGF-β1, COX-2, mPGES and PGE2. To begin to address the question of whether selected F-spondin effects in cartilage are mediated by prostaglandin production, we have begun studies to characterize the effect of PGE2 in cartilage. Addition of PGE2 (1-10 uM) to cartilage explants inhibited type II collagen, aggrecan expression, ^35SO4 incorporation, as well as increased type II collagen degradation as assessed by C12C ELISA (IBEX). […] Relative to normals, NURR1 was overexpressed in OA cartilage (2-5 fold) and synovium (2 fold), confirmed by QPCR. Incubation of OA chondrocytes with PGE2 (1-10 uM) induced NURR1 expression (20-50 fold), as analyzed by QPCR. Since NURR1 binds to the NURR1 cis-acting sequence (NBRE) in the promoter region of a variety of genes, we examined the effect of adenoviral-mediated over-expression of NURR1 in chondrocytes.
For initial experiments, chondrocytes isolated from OA knee joints will be used, building from our previous observations using monolayer cultures of these cells (Attur M G, Dave M, Cipolletta C, Kang P, Goldring M B, Patel I R, et al. Reversal of autocrine and paracrine effects of interleukin 1 (IL-1) in human arthritis by type II IL-1 decoy receptor. Potential for pharmacological intervention. J Biol Chem 2000; 275(51):40307-15). However, because OA chondrocytes endogenously express F-spondin, at least initially, there is a potential for a masking effect between control and F-spondin-transduced cultures. To address this, experiments will also be performed in both “normal” chondrocytes isolated from non-arthritic cartilage (obtained from NDRI, Philadelphia) and immortalized C28I2 chondrocytes, where endogenous F-spondin expression is low and absent, respectively (unpublished data). Using this experimental culture system, we expect similar metabolic responses among chondrocyte sources, however if variation between sources is observed, to F-spondin either with or without IL-1, they will be noted and investigated further. For each group and time point, alginate cultures and conditioned cell culture media supernatants will be analyzed by quantitative PCR, ELISA and biochemical assays for molecular markers associated with cartilage anabolism and catabolism. Based on our preliminary findings with F-spondin and IL-1 treatment of monolayer chondrocytes, we predict that at least some of these molecules will be modulated in alginate cultures.

[2] = test system: OA cartilage explant cultures; details: cited from earlier work
embryonic mouse tibia = test: Embryonic mouse tibia organ culture ex vivo (growth, staining, histology)
Protocol: FIGS. 20A, 20B and 20C. F-spondin regulates bone growth and morphology in mouse tibial organ cultures. Longitudinal growth and histological analysis of embryonic mouse tibia after 7 days of culture ex vivo. Tibia were treated with recombinant F-spondin FS (1 mg/ml) or an anti-F-spondin, TSR-domain specific (R1) antibody. (A) Representative images of whole tibia stained with alcian blue (proteoglycans) and alizarin red (mineral). (B) Tibial growth was measured after 7 days of organ culture and expressed as percent of original length at day 0. Average growth for control cultures has been set to 100% (C) H&E stained sections of corresponding limbs after 7 days treatment. Arrows indicate hypertrophic chondrocytes in the […] growth plate.
All animal experiments were conducted according to the guidelines of the Institutional Animal Care and Use Committee (IACUC) of New York University. […] After 12 hours, tibiae were placed in 24-well Falcon plates and initial longitudinal length was measured using a stereomicroscope. […] (purchased from R&D Systems, Minneapolis, Minn. (Cat No AF3135). Media was changed every 24 hours beginning on day one, and tibial length was measured again at the end of one week. The results were expressed as percentage changes in length relative to day one. […]

B1: F-spondin: 110 kDa, secreted, heparin-binding extracellular matrix glycoprotein; used as recombinant protein (R&D systems) or transfected-cell supernatant (protein, UniProt Q9HCB6 29-807, looked up)
Spondin-1: FSDETLDKVPKSEGYCSRILRAQGTRREGYTEFSLRVEGDPDFYKPGTSYRVTLSAAPPSYFRGFTLIALRENREGDKEEDHAGTFQIIDEEETQFMSNCPVAVTESTPRRRTRIQVFWIAPPAGTGCVILKASIVQKRIIYFQDEGSLTKKLCEQDSTFDGVTDKPILDCCACGTAKYRLTFYGNWSEKTHPKDYPRRANHWSAIIGGSHSKNYVLWEYGGYASEGVKQVAELGSPVKMEEEIRQQSDEVLTVIKAKAQWPAWQPLNVRAAPSAEFSVDRTRHLMSFLTMMGPSPDWNVGLSAEDLCTKECGWVQKVVQDLIPWDAGTDSGVTYESPNKPTIPQEKIRPLTSLDHPQSPFYDPEGGSITQVARVVIERIARKGEQCNIVPDNVDDIVADLAPEEKDEDDTPETCIYSNWSPWSACSSSTCDKGKRMRQRMLKAQLDLSVPCPDTQDFQPCMGPGCSDEDGSTCTMSEWITWSPCSISCGMGMRSRERYVKQFPEDGSVCTLPTEETEKCTVNEECSPSSCLMTEWGEWDECSATCGMGMKKRHRMIKMNPADGSMCKAETSQAEKCMMPECHTIPCLLSPWSEWSDCSVTCGKGMRTRQRMLKSLAELGDCNEDLEQVEKCMLPECPIDCELTEWSQWSECNKSCGKGHVIRTRMIQMEPQFGGAPCPETVQRKKCRIRKCLRNPSIQKLRWREARESRRSEQLKEESEGEQFPGCRMRPWTAWSECTKLCGGGIQERYMTVKKRFKSSQFTSCKDKKEIRACNVHPC
[1]; chondrocytes
  COX-2 gene/gene product: induced
  mPGES gene/gene product: induced
[1]; preliminary, monolayer culture
  AGC1 regulation: AGC1*
  BMP-2 regulation: BMP-2*
  COL2A1 regulation: COL2A1*
  IL-1β regulation: IL-1β**
  IL-6 regulation: IL-6*
  IL-8 regulation: IL-8*
  MMP-1 regulation: MMP-1**
  MMP-13 regulation: MMP-13*
  PGE2 regulation: PGE2*
  TGF-β regulation: TGF-β*
  TNFα regulation: TNFα**
[2]
  MMP-13 secretion: increase
  type II collagen degradation: increase
Embryonic mouse tibia; 7 days culture, compared to untreated limbs
  alizarin red staining: slight increase
Embryonic mouse tibia; growth plate cartilage adjacent to mineralized core
  number of hypertrophic chondrocytes (H&E): increased numbers
